Biological target: T1, Purified FLAG-tagged HPV18 E1 (human papillomavirus type 18, UniProt P06789 1-657)
T1 construct: E1 helicase of human papillomavirus type 18; also called F18E1; source: Sf9 cells, recombinant baculovirus (pFastBac1), purified; not shown: FLAG, N-terminal, kept
T1 sequence: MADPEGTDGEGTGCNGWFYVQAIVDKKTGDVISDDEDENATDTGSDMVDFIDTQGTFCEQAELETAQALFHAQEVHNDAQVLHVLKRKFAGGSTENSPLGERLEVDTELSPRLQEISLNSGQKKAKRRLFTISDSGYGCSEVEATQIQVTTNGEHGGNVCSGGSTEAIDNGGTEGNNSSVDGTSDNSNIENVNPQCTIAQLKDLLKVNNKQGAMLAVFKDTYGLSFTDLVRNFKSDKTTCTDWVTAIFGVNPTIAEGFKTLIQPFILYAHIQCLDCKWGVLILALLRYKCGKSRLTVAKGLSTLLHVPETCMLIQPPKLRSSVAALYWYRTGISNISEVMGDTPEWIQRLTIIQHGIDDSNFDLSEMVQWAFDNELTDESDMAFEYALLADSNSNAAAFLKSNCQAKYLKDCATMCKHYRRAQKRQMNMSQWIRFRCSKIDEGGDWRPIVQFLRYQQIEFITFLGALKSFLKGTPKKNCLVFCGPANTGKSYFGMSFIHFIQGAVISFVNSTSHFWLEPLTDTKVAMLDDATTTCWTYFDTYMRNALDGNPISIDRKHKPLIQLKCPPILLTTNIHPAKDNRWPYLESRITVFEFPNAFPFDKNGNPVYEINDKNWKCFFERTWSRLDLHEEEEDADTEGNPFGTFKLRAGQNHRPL
Assay: co-IP; 1 ug purified H16E1 and 4 ug purified F18E1 in 200 ul binding buffer (20 mM Tris-HCl pH 8.0, 150 mM NaCl, 2 mM MgCl2, 0.01% NP-40); IP with anti-FLAG antibody and protein G magnetic beads, 1 h at 4°C; blot with anti-6xHis antibody
Conditions: both partners purified

B1: Purified 6xHis-tagged HPV16 E1 (enzyme)
chain: MADPAGTNGEEGTGCNGWFYVEAVVEKKTGDAISDDENENDSDTGEDLVDFIVNDNDYLTQAETETAHALFTAQEAKQHRDAVQVLKRKYLVSPLSDISGCVDNNISPRLKAICIEKQSRAAKRRLFESEDSGYGNTEVETQQMLQVEGRHETETPCSQYSGGSGGGCSQYSSGSGGEGVSERHTICQTPLTNILNVLKTSNAKAAMLAKFKELYGVSFSELVRPFKSNKSTCCDWCIAAFGLTPSIADSIKTLLQQYCLYLHIQSLACSWGMVVLLLVRYKCGKNRETIEKLLSKLLCVSPMCMMIEPPKLRSTAAALYWYKTGISNISEVYGDTPEWIQRQTVLQHSFNDCTFELSQMVQWAYDNDIVDDSEIAYKYAQLADTNSNASAFLKSNSQAKIVKDCATMCRHYKRAEKKQMSMSQWIKYRCDRVDDGGDWKQIVMFLRYQGVEFMSFLTALKRFLQGIPKKNCILLYGAANTGKSLFGMSLMKFLQGSVICFVNSKSHFWLQPLADAKIGMLDDATVPCWNYIDDNLRNALDGNLVSMDVKHRPLVQLKCPPLLITSNINAGTDSRWPYLHNRLVVFTFPNEFPFDENGNPVYELNDKNWKSFFSRTWSRLSLHEDEDKENDGDSLPTFKCVSGQNTNTL
notes: E1 helicase of human papillomavirus type 16; H16E1 gene cloned into pET-30; The pET-30 vector may add further vector-derived residues; also called H16E1; source: Escherichia coli BL21(DE3) pLysS (pET-30), purified
binding result: binds
